B1: TN3-2-B1-c22-11 (designed binder)
chain: ALQTVCLKGTKVHMKCFLAFTQTKTFHEASEDCISRGGTLSTPQTGSENDALYEYLRQSVGNEAEIWLGLNKRWSRYFWVDMTGTRIAYKNWERPEDAQPDPSNWENCAVLSGAANGKWFGKRCRDQLPYICQFGIV
notes: Monomeric tetranectin CTLD clone
B2: TN3-2-B1-C53 (designed binder)
chain: ALQTVCLKGTKVHMKCFLAFTQTKTFHEASEDCISRGGTLSTPQTGSENDALYEYLRQSVGNEAEIWLGLNKRWSRYFWVDMTGTRIAYKNWERLADAQPDPFNWENCAVLSGAANGKWFGKRCRDQLPYICQFGIV
notes: as for B1
B3: TN3-2-B1-c22-1 (designed binder)
chain: ALQTVCLKGTKVHMKCFLAFTQTKTFHEASEDCISRGGTLSTPQTGSENDALYEYLRQSVGNEAEIWLGLNKRWSRYFWVDMTGTRIAYKNWKLPQHANPSPSNWENCAVLSGAANGKWFGKRCRDQLPYICQFGIV
notes: as for B1
B4: TN3-2-B1-c22-4 (designed binder)
chain: ALQTVCLKGTKVHMKCFLAFTQTKTFHEASEDCISRGGTLSTPQTGSENDALYEYLRQSVGNEAEIWLGLNKRWSRYFWVDMTGTRIAYKNWALPQHASPSPSNWENCAVLSGAANGKWFGKRCRDQLPYICQFGIV
notes: as for B1
B5: TN3-2-B1-C29 (designed binder)
chain: ALQTVCLKGTKVHMKCFLAFTQTKTFHEASEDCISRGGTLSTPQTGSENDALYEYLRQSVGNEAEIWLGLNKRWSRYFWVDMTGTRIAYKNWEGIEWAQPDPTNFENCAVLSGAANGKWFGKRCRDQLPYICQFGIV
notes: as for B1
B6: TN3-2-B1-c22-15 (designed binder)
chain: ALQTVCLKGTKVHMKCFLAFTQTKTFHEASEDCISRGGTLSTPQTGSENDALYEYLRQSVGNEAEIWLGLNKRWSRYFWVDMTGTRIAYKNWQLPQHADPAPSNWENCAVLSGAANGKWFGKRCRDQLPYICQFGIV
notes: as for B1
B7: TN3-2-B1-c22-8 (designed binder)
chain: ALQTVCLKGTKVHMKCFLAFTQTKTFHEASEDCISRGGTLSTPQTGSENDALYEYLRQSVGNEAEIWLGLNKRWSRYFWVDMTGTRIAYKNWARTQDAQPDPSNWENCAVLSGAANGKWFGKRCRDQLPYICQFGIV
notes: as for B1
B8: TN3-2-B1-C22-7 (designed binder)
chain: ALQTVCLKGTKVHMKCFLAFTQTKTFHEASEDCISRGGTLSTPQTGSENDALYEYLRQSVGNEAEIWLGLNKRWSRYFWVDMTGTRIAYKNWGRKEDAQPDPSNWENCAVLSGAANGKWFGKRCRDQLPYICQFGIV
notes: Monomeric tetranectin CTLD clone; also called TN3-B1-C22-7; monomeric form of TN2B1C22-7
B9: TN3-2-B1-C31 (designed binder)
chain: ALQTVCLKGTKVHMKCFLAFTQTKTFHEASEDCISRGGTLSTPQTGSENDALYEYLRQSVGNEAEIWLGLNKRWSRYFWVDMTGTRIAYKNWEHSSDAQPDPSNWENCAVLSGAANGKWFGKRCRDQLPYICQFGIV
notes: as for B1
B10: TN3-2-B1-c22-13 (designed binder)
chain: ALQTVCLKGTKVHMKCFLAFTQTKTFHEASEDCISRGGTLSTPQTGSENDALYEYLRQSVGNEAEIWLGLNKRWSRYFWVDMTGTRIAYKNWERLRDSQPDPSNWENCAVLSGAANGKWFGKRCRDQLPYICQFGIV
notes: as for B1
B11: TN3-2-B1-c22-2 (designed binder)
chain: ALQTVCLKGTKVHMKCFLAFTQTKTFHEASEDCISRGGTLSTPQTGSENDALYEYLRQSVGNEAEIWLGLNKRWSRYFWVDMTGTRIAYKNWLLPQHANPNPSNWENCAVLSGAANGKWFGKRCRDQLPYICQFGIV
notes: as for B1
B12: TN3-2-B1-c22-16 (designed binder)
chain: ALQTVCLKGTKVHMKCFLAFTQTKTFHEASEDCISRGGTLSTPQTGSENDALYEYLRQSVGNEAEIWLGLNKRWSRYFWVDMTGTRIAYKNWLLPQHEQPEPSNWENCAVLSGAANGKWFGKRCRDQLPYICQFGIV
notes: as for B1
B13: TN3-2-B1-C19 (designed binder)
chain: ALQTVCLKGTKVHMKCFLAFTQTKTFHEASEDCISRGGTLSTPQTGSENDALYEYLRQSVGNEAEIWLGLNKRWSRYFWVDMTGTRIAYKNWELIRDAQPDPANWENCAVLSGAANGKWFGKRCRDQLPYICQFGIV
notes: as for B1
B14: TN3-2-B1-c22-12 (designed binder)
chain: ALQTVCLKGTKVHMKCFLAFTQTKTFHEASEDCISRGGTLSTPQTGSENDALYEYLRQSVGNEAEIWLGLNKRWSRYFWVDMTGTRIAYKNWSRQEDAQPDPSNWENCAVLSGAANGKWFGKRCRDQLPYICQFGIV
notes: as for B1
B15: TN3-2-B1-C1 (designed binder)
chain: ALQTVCLKGTKVHMKCFLAFTQTKTFHEASEDCISRGGTLSTPQTGSENDALYEYLRQSVGNEAEIWLGLNKRWSRYFWVDMTGTRIAYKNWELLSDAQPDPVNWENCAVLSGAANGKWFGKRCRDQLPYICQFGIV
notes: as for B1
B16: TN3-2-B1-c22-6 (designed binder)
chain: ALQTVCLKGTKVHMKCFLAFTQTKTFHEASEDCISRGGTLSTPQTGSENDALYEYLRQSVGNEAEIWLGLNKRWSRYFWVDMTGTRIAYKNWMLEKDAQPDPSNWENCAVLSGAANGKWFGKRCRDQLPYICQFGIV
notes: as for B1
B17: TN3-2-B1-c22-3 (designed binder)
chain: ALQTVCLKGTKVHMKCFLAFTQTKTFHEASEDCISRGGTLSTPQTGSENDALYEYLRQSVGNEAEIWLGLNKRWSRYFWVDMTGTRIAYKNWKLPQHAHPEPSNWENCAVLSGAANGKWFGKRCRDQLPYICQFGIV
notes: as for B1
B18: TN3-2-B1-C24 (designed binder)
chain: ALQTVCLKGTKVHMKCFLAFTQTKTFHEASEDCISRGGTLSTPQTGSENDALYEYLRQSVGNEAEIWLGLNKRWSRYFWVDMTGTRIAYKNWERTTDAQPDPSNWENCAVLSGAANGKWFGKRCRDQLPYICQFGIV
notes: as for B1
B19: TN3-2-B1-c22-9 (designed binder)
chain: ALQTVCLKGTKVHMKCFLAFTQTKTFHEASEDCISRGGTLSTPQTGSENDALYEYLRQSVGNEAEIWLGLNKRWSRYFWVDMTGTRIAYKNWERNRDAQPDPSNWENCAVLSGAANGKWFGKRCRDQLPYICQFGIV
notes: as for B1
B20: TN3-2-B1-c22-10 (designed binder)
chain: ALQTVCLKGTKVHMKCFLAFTQTKTFHEASEDCISRGGTLSTPQTGSENDALYEYLRQSVGNEAEIWLGLNKRWSRYFWVDMTGTRIAYKNWVRQRDAQPDPSNWENCAVLSGAANGKWFGKRCRDQLPYICQFGIV
notes: as for B1
B21: TN3-2-B1-C22 (designed binder)
chain: ALQTVCLKGTKVHMKCFLAFTQTKTFHEASEDCISRGGTLSTPQTGSENDALYEYLRQSVGNEAEIWLGLNKRWSRYFWVDMTGTRIAYKNWELPQHAQPDPSNWENCAVLSGAANGKWFGKRCRDQLPYICQFGIV
notes: Monomeric tetranectin CTLD clone; also called monomeric form of TN2B1C22
B22: TN3-2-B1-C20 (designed binder)
chain: ALQTVCLKGTKVHMKCFLAFTQTKTFHEASEDCISRGGTLSTPQTGSENDALYEYLRQSVGNEAEIWLGLNKRWSRYFWVDMTGTRIAYKNWERRQDAQPDPSNWENCAVLSGAANGKWFGKRCRDQLPYICQFGIV
notes: as for B1
B23: TN3-2-B1-c22-7 (designed binder)
chain: ALQTVCLKGTKVHMKCFLAFTQTKTFHEASEDCISRGGTLSTPQTGSENDALYEYLRQSVGNEAEIWLGLNKRWSRYFWVDMTGTRIAYKNWGRKEDAQPDPSNWENCAVLSGAANGKWFGKRCRDQLPYICQFGIV
notes: as for B1
B24: TN3-2-B1-c7 (designed binder)
chain: ALQTVCLKGTKVHMKCFLAFTQTKTFHEASEDCISRGGTLSTPQTGSENDALYEYLRQSVGNEAEIWLGLNKRWSRYFWVDMTGTRIAYKNWELASDAQPDPANWENCAVLSGAANGKWFGKRCRDQLPYICQFGIV
notes: as for B1

Molecular target: T1, human tumor necrosis factor (TNF) (human, UniProt P01375 77-233)
T1 construct: The assays use 'human TNF'; The target of the phage display selection is printed only as 'TNF'; also called TNF-alpha
Assay: phage display selection and maturation

T1 sequence (P01375 77-233 limits assumed): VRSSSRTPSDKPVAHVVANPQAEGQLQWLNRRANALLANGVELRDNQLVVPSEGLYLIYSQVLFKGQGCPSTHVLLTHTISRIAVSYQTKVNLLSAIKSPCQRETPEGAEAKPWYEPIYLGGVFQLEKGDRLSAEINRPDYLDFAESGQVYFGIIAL

Binder | binding result
B1 | binds
B2 | binds
B3 | binds
B4 | binds
B5 | binds
B6 | binds
B7 | binds
B8 | binds
B9 | binds
B10 | binds
B11 | binds
B12 | binds
B13 | binds
B14 | binds
B15 | binds
B16 | binds
B17 | binds
B18 | binds
B19 | binds
B20 | binds
B21 | binds
B22 | binds
B23 | binds
B24 | binds
